From PMC8564726, “Heterodimerization of H3K9 histone methyltransferases G9a and GLP activates methyl reading and writing capabilities” (The Journal of Biological Chemistry, 2021) come the findings set out here.

In assay [1] the target is unmethylated mononucleosome (H3K9me0), 147 bp 601 DNA 5'-fluorescein-labeled. Description: fluorescence polarisation; core mononucleosomes (147 bp 601 DNA, 5' fluorescein) at 150 nM, enzyme titrated; 100 mM Tris pH 8, 100 mM KCl, 1 mM MgCl2, 20 μM ZnSO4, 10 mM BME, 0.1% NP-40.
For assay [2], the target named is N-terminally 6xHis-tagged G9a ANK-SET. The experiment in a line: pull-down; His:G9a coexpressed with MBP:G9a or MBP:GLP in E. coli; sequential cobalt and amylose resin purification; SyPRO Red stained bands quantified.
Assay [3] concerns the target fluoresceinated H3(1-20) K9me2 peptide, P68431. Description: fluorescence polarisation; fluoresceinated H3(1-20) K9me1 or K9me2 peptide at 150 nM, enzyme titrated; 100 mM Tris pH 8, 100 mM KCl, 1 mM MgCl2, 20 μM ZnSO4, 10 mM BME, 0.1% NP-40.
Assay [4] concerns the target G9a ANK-SET, tags removed. Description: SEC-MALS; His and MBP tags removed; injected at 10 μM, Shodex KW804 column, 0.4 ml per minute.

B1: G9a ANK-SET homodimer (complex)
chain: DAPGRADTSQPSARMRGHGEPRRPPCDPLADTIDSSGPSLTLPNGGCLSAVGLPPGPGREALEKALVIQESERRKKLRFHPRQLYLSVKQGELQKVILMLLDNLDPNFQSDQQSKRTPLHAAAQKGSVEICHVLLQAGANINAVDKQQRTPLMEAVVNNHLEVARYMVQLGGCVYSKEEDGSTCLHHAAKIGNLEMVSLLLSTGQVDVNAQDSGGWTPIIWAAEHKHIDVIRMLLTRGADVTLTDNEENICLHWASFTGSAAIAEVLLNAQCDLHAVNYHGDTPLHIAARESYHDCVLLFLSRGANPELRNKEGDTAWDLTPERSDVWFALQLNRKLRLGVGNRAVRTEKIICRDVARGYENVPIPCVNGVDGEPCPEDYKYISENCETSTMNIDRNITHLQHCTCVDDCSSSNCLCGQLSIRCWYDKDGRLLQEFNKIEPPLIFECNQACSCWRSCKNRVVQSGIKVRLQLYRTAKMGWGVRALQTIPQGTFICEYVGELISDAEADVREDDSYLFDLDNKDGEVYCIDARYYGNISRFINHLCDPNIIPVRVFMLHQDLRFPRIAFFSSRDIRTGEELGFDYGDRFWDIKSKYFTCQCGSEKCKHSAEAIALEQSRLARLDPHPELLPDLSSLPPINT
modifications: not checked
Take B1: the Kd in assay [1] lay in the range of 6 to 7 µM.

B2: N-terminally Maltose-Binding Protein tagged G9a ANK-SET (domain or fragment)
chain: DAPGRADTSQPSARMRGHGEPRRPPCDPLADTIDSSGPSLTLPNGGCLSAVGLPPGPGREALEKALVIQESERRKKLRFHPRQLYLSVKQGELQKVILMLLDNLDPNFQSDQQSKRTPLHAAAQKGSVEICHVLLQAGANINAVDKQQRTPLMEAVVNNHLEVARYMVQLGGCVYSKEEDGSTCLHHAAKIGNLEMVSLLLSTGQVDVNAQDSGGWTPIIWAAEHKHIDVIRMLLTRGADVTLTDNEENICLHWASFTGSAAIAEVLLNAQCDLHAVNYHGDTPLHIAARESYHDCVLLFLSRGANPELRNKEGDTAWDLTPERSDVWFALQLNRKLRLGVGNRAVRTEKIICRDVARGYENVPIPCVNGVDGEPCPEDYKYISENCETSTMNIDRNITHLQHCTCVDDCSSSNCLCGQLSIRCWYDKDGRLLQEFNKIEPPLIFECNQACSCWRSCKNRVVQSGIKVRLQLYRTAKMGWGVRALQTIPQGTFICEYVGELISDAEADVREDDSYLFDLDNKDGEVYCIDARYYGNISRFINHLCDPNIIPVRVFMLHQDLRFPRIAFFSSRDIRTGEELGFDYGDRFWDIKSKYFTCQCGSEKCKHSAEAIALEQSRLARLDPHPELLPDLSSLPPINT
Turning to B2, the stoichiometry N (MBP protein per His:G9a) in assay [2] is 1.

B3: GLP ANK-SET homodimer (complex)
chain: QEKSLAAEGRADTTTGSIAGAPEDERSQSTAPQAPECFDPAGPAGLVRPTSGLSQGPGKETLESALIALDSEKPKKLRFHPKQLYFSARQGELQKVLLMLVDGIDPNFKMEHQSKRSPLHAAAEAGHVDICHMLVQAGANIDTCSEDQRTPLMEAAENNHLDAVKYLIKAGAQVDPKDAEGSTCLHLAAKKGHYDVVQYLLSNGQMDVNCQDDGGWTPMIWATEYKHVELVKLLLSKGSDINIRDNEENICLHWAAFSGCVDIAEILLAAKCDLHAVNIHGDSPLHIAARENRYDCVVLFLSRDSDVTLKNKEGETPLQCASLSSQVWSALQMSKALRDSAPDKPVAVEKTVSRDIARGYERIPIPCVNAVDSELCPTNYKYVSQNCVTSPMNIDRNITHLQYCVCVDDCSSSTCMCGQLSMRCWYDKDGRLLPEFNMAEPPLIFECNHACSCWRNCRNRVVQNGLRARLQLYRTQDMGWGVRSLQDIPLGTFVCEYVGELISDSEADVREEDSYLFDLDNKDGEVYCIDARFYGNVSRFINHHCEPNLVPVRVFMSHQDLRFPRIAFFSTRLIQAGEQLGFDYGERFWDVKGKLFSCRCGSSKCRHSSAALAQRQASAAQEPQENGLPDTSSAAAADPL
modifications: not checked
Molecule B3 came in with a fold reduction of binding (reference not clearly named) in assay [3] of 12.5 times. The equilibrium dissociation constant (Kd) in assay [1] came out at 26.3 µM.

B4: N-terminally Maltose-Binding Protein tagged GLP ANK-SET (domain or fragment)
chain: QEKSLAAEGRADTTTGSIAGAPEDERSQSTAPQAPECFDPAGPAGLVRPTSGLSQGPGKETLESALIALDSEKPKKLRFHPKQLYFSARQGELQKVLLMLVDGIDPNFKMEHQSKRSPLHAAAEAGHVDICHMLVQAGANIDTCSEDQRTPLMEAAENNHLDAVKYLIKAGAQVDPKDAEGSTCLHLAAKKGHYDVVQYLLSNGQMDVNCQDDGGWTPMIWATEYKHVELVKLLLSKGSDINIRDNEENICLHWAAFSGCVDIAEILLAAKCDLHAVNIHGDSPLHIAARENRYDCVVLFLSRDSDVTLKNKEGETPLQCASLSSQVWSALQMSKALRDSAPDKPVAVEKTVSRDIARGYERIPIPCVNAVDSELCPTNYKYVSQNCVTSPMNIDRNITHLQYCVCVDDCSSSTCMCGQLSMRCWYDKDGRLLPEFNMAEPPLIFECNHACSCWRNCRNRVVQNGLRARLQLYRTQDMGWGVRSLQDIPLGTFVCEYVGELISDSEADVREEDSYLFDLDNKDGEVYCIDARFYGNVSRFINHHCEPNLVPVRVFMSHQDLRFPRIAFFSTRLIQAGEQLGFDYGERFWDVKGKLFSCRCGSSKCRHSSAALAQRQASAAQEPQENGLPDTSSAAAADPL
modifications: not checked
In assay [2], B4 came in with a stoichiometry N (MBP protein per His:G9a) of 1.

B5: GLP ANK-SET, tags removed (domain or fragment)
chain: QEKSLAAEGRADTTTGSIAGAPEDERSQSTAPQAPECFDPAGPAGLVRPTSGLSQGPGKETLESALIALDSEKPKKLRFHPKQLYFSARQGELQKVLLMLVDGIDPNFKMEHQSKRSPLHAAAEAGHVDICHMLVQAGANIDTCSEDQRTPLMEAAENNHLDAVKYLIKAGAQVDPKDAEGSTCLHLAAKKGHYDVVQYLLSNGQMDVNCQDDGGWTPMIWATEYKHVELVKLLLSKGSDINIRDNEENICLHWAAFSGCVDIAEILLAAKCDLHAVNIHGDSPLHIAARENRYDCVVLFLSRDSDVTLKNKEGETPLQCASLSSQVWSALQMSKALRDSAPDKPVAVEKTVSRDIARGYERIPIPCVNAVDSELCPTNYKYVSQNCVTSPMNIDRNITHLQYCVCVDDCSSSTCMCGQLSMRCWYDKDGRLLPEFNMAEPPLIFECNHACSCWRNCRNRVVQNGLRARLQLYRTQDMGWGVRSLQDIPLGTFVCEYVGELISDSEADVREEDSYLFDLDNKDGEVYCIDARFYGNVSRFINHHCEPNLVPVRVFMSHQDLRFPRIAFFSTRLIQAGEQLGFDYGERFWDVKGKLFSCRCGSSKCRHSSAALAQRQASAAQEPQENGLPDTSSAAAADPL
modifications: not checked
For the molecule B5, in assay [4], the stoichiometry N was determined as 1 GLP per G9a.

B6: G9a-GLP ANK-SET heterodimer (complex)
chain 1: DAPGRADTSQPSARMRGHGEPRRPPCDPLADTIDSSGPSLTLPNGGCLSAVGLPPGPGREALEKALVIQESERRKKLRFHPRQLYLSVKQGELQKVILMLLDNLDPNFQSDQQSKRTPLHAAAQKGSVEICHVLLQAGANINAVDKQQRTPLMEAVVNNHLEVARYMVQLGGCVYSKEEDGSTCLHHAAKIGNLEMVSLLLSTGQVDVNAQDSGGWTPIIWAAEHKHIDVIRMLLTRGADVTLTDNEENICLHWASFTGSAAIAEVLLNAQCDLHAVNYHGDTPLHIAARESYHDCVLLFLSRGANPELRNKEGDTAWDLTPERSDVWFALQLNRKLRLGVGNRAVRTEKIICRDVARGYENVPIPCVNGVDGEPCPEDYKYISENCETSTMNIDRNITHLQHCTCVDDCSSSNCLCGQLSIRCWYDKDGRLLQEFNKIEPPLIFECNQACSCWRSCKNRVVQSGIKVRLQLYRTAKMGWGVRALQTIPQGTFICEYVGELISDAEADVREDDSYLFDLDNKDGEVYCIDARYYGNISRFINHLCDPNIIPVRVFMLHQDLRFPRIAFFSSRDIRTGEELGFDYGDRFWDIKSKYFTCQCGSEKCKHSAEAIALEQSRLARLDPHPELLPDLSSLPPINT
chain 2: QEKSLAAEGRADTTTGSIAGAPEDERSQSTAPQAPECFDPAGPAGLVRPTSGLSQGPGKETLESALIALDSEKPKKLRFHPKQLYFSARQGELQKVLLMLVDGIDPNFKMEHQSKRSPLHAAAEAGHVDICHMLVQAGANIDTCSEDQRTPLMEAAENNHLDAVKYLIKAGAQVDPKDAEGSTCLHLAAKKGHYDVVQYLLSNGQMDVNCQDDGGWTPMIWATEYKHVELVKLLLSKGSDINIRDNEENICLHWAAFSGCVDIAEILLAAKCDLHAVNIHGDSPLHIAARENRYDCVVLFLSRDSDVTLKNKEGETPLQCASLSSQVWSALQMSKALRDSAPDKPVAVEKTVSRDIARGYERIPIPCVNAVDSELCPTNYKYVSQNCVTSPMNIDRNITHLQYCVCVDDCSSSTCMCGQLSMRCWYDKDGRLLPEFNMAEPPLIFECNHACSCWRNCRNRVVQNGLRARLQLYRTQDMGWGVRSLQDIPLGTFVCEYVGELISDSEADVREEDSYLFDLDNKDGEVYCIDARFYGNVSRFINHHCEPNLVPVRVFMSHQDLRFPRIAFFSTRLIQAGEQLGFDYGERFWDVKGKLFSCRCGSSKCRHSSAALAQRQASAAQEPQENGLPDTSSAAAADPL
modifications: not checked
B6 returned a Kd in assay [1] of 6 to 7 µM.
